Experimental data taken from the supplement of paper PMC10126150.
± gives the standard deviation of the averaged measurements.

System: ATP
Assay: switch fluorescence ratio, 500 uM ATP over buffer (Cy3 cluster intensity, sum of 5 cycles each) (fold (ratio)); higher = stronger signal-on switching upon ATP binding; sequences stand for … in TCGTCGGCAGCGTCAGATGTGTATAAGAGACAGTTTTTTTTTTTTTTTTTTTTTTTTT…TC
Conditions: aptamer strand: ATP DNA aptamer (quencher-CACCTGGGGGAGTATTGCGGAGGAAGG + anchor), 100 nM annealed; ATP concentration: 500 uM
In short: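 Per cluster, summed Cy3 intensity from the target cycles was divided by that from the buffer cycles to give the fluorescence ratio, then averaged per switch-domain sequence. Clusters outside 100-1000 RFU were excluded. The Cy3-labelled switching-strand clusters, on a modified Illumina MiSeq flow-cell, were annealed to 100 nM quencher-labelled ATP aptamer and imaged in selection buffer, then after 15 min with 500 uM ATP at 22 °C, for five cycles with NaOH stripping and re-annealing between them.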
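Also: ATP exposure 15 min at 22 °C before imaging.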

| Sequence | switch fluorescence ratio |
| --- | --- |
| CTGGGACAAA | 1.001 ± 0.0016 |
| CTGGGATAGG | 1 ± 0.02 |
| CTGGGATATA | 1 ± 0.04 |
| CTGGGATTTG | 0.997 ± 0.049 |
| CTGGGGGAGT | 1 ± 0.012 |
| CTGGGGGATA | 1.02 ± 0.036 |
| CTGGGGGGTA | 0.997 ± 0.028 |
| CTGGGGTCGG | 1 ± 0.052 |
| CTGGGGTGGA | 1.01 ± 0.036 |
| CTGGGGTGTA | 1.03 ± 0.059 |
| CTGGGTAAGT | 1.017 ± 0.0074 |
| CTGGGTATGT | 0.959 ± 0.027 |
| CTGGGTATTT | 0.999 ± 0.04 |
| CTGGGTGCCG | 0.968 ± 0.084 |
| CTGGGTTATT | 0.977 ± 0.042 |
| CTGGGTTTAT | 1 ± 0.042 |
| CTGGTAATAT | 1.15 ± 0.041 |
| CTGGTACGAC | 1.13 ± 0.016 |
| CTGGTACGGA | 1.0245 ± 0.00032 |
| CTGGTCAATG | 1.01 ± 0.063 |
| CTGGTCGCTG | 1.01 ± 0.046 |
| CTGGTCGGGT | 1 ± 0.006 |
| CTGGTCGTGC | 0.999 ± 0.013 |
| CTGGTGGATT | 0.996 ± 0.024 |
| CTGGTGGCCG | 1 ± 0.028 |

| Sequence | switch fluorescence ratio |
| --- | --- |
| CTGGTTAACT | 1.024 ± 0.0048 |
| CTGGTTAGGT | 1.01 ± 0.02 |
| CTGGTTGCGG | 0.979 ± 0.021 |
| CTGGTTTTGT | 1.04 ± 0.014 |
| CTGTAAGGTG | 1.83 ± 1 |
| CTGTAAGTCT | 0.989 ± 0.011 |
| CTGTAGAAGA | 1.05 ± 0.032 |
| CTGTAGACGG | 1.05 ± 0.014 |
| CTGTATAGGT | 0.965 ± 0.025 |
| CTGTATCAAG | 0.999 ± 0.013 |
| CTGTATCTTT | 1.02 ± 0.036 |
| CTGTCAGATT | 0.974 ± 0.025 |
| CTGTCATGGG | 0.9952 ± 0.0063 |
| CTGTCCAGTT | 1.02 ± 0.048 |
| CTGTCGGGCG | 1.02 ± 0.035 |
| CTGTCGGGGT | 0.982 ± 0.037 |
| CTGTGAGTTT | 1.007 ± 0.0094 |
| CTGTGCCAAG | 1.0036 ± 0.00061 |
| CTGTGCTAGG | 1.01 ± 0.011 |
| CTGTGGCCCG | 0.98 ± 0.027 |
| CTGTGGGGGT | 1.04 ± 0.012 |
| CTGTGGTTTA | 1.03 ± 0.021 |
| CTGTGTGAAG | 1 ± 0.038 |
| CTGTGTGTTT | 0.9781 ± 0.0072 |
| CTGTTACTGT | 0.986 ± 0.024 |

| Sequence | switch fluorescence ratio |
| --- | --- |
| CTGTTAGGCG | 0.9676 ± 0.0092 |
| CTGTTCTAGT | 0.963 ± 0.045 |
| CTGTTGAAAA | 1.07 ± 0.022 |
| CTGTTGAATT | 1.01 ± 0.046 |
| CTGTTGGTGG | 0.99 ± 0.017 |
| CTGTTGTGGG | 0.989 ± 0.039 |
| CTGTTTAAGT | 1.005 ± 0.0073 |
| CTGTTTCCGA | 1.03 ± 0.052 |
| CTGTTTTTAT | 1.01 ± 0.034 |
| CTTAAAACGT | 1.056 ± 0.0033 |
| CTTAAATGGG | 0.955 ± 0.019 |
| CTTAAATTCT | 1.01 ± 0.011 |
| CTTACAGCTT | 1.04 ± 0.023 |
| CTTACAGTTT | 1 ± 0.011 |
| CTTACGGTCG | 1.02 ± 0.038 |
| CTTAGACGTC | 0.948 ± 0.043 |
| CTTAGAGTTG | 0.983 ± 0.016 |
| CTTAGCGGCC | 1.007 ± 0.0038 |
| CTTAGCTATT | 1.019 ± 0.0077 |
| CTTAGGCGGG | 1 ± 0.059 |
| CTTAGGGAGC | 0.969 ± 0.085 |
| CTTAGGGGCG | 0.976 ± 0.024 |
| CTTAGGGTTT | 0.988 ± 0.019 |
| CTTAGTAGT | 0.973 ± 0.024 |
| CTTAGTATAG | 0.998 ± 0.032 |

| Sequence | switch fluorescence ratio |
| --- | --- |
| CTTAGTGCGG | 0.978 ± 0.0012 |
| CTTAGTTGGT | 0.965 ± 0.012 |
| CTTATAGTGC | 0.974 ± 0.0023 |
| CTTATATATG | 0.987 ± 0.017 |
| CTTATATTTT | 0.997 ± 0.066 |
| CTTATCAATT | 1 ± 0.018 |
| CTTATCGAAG | 0.968 ± 0.015 |
| CTTATCGGGG | 1 ± 0.013 |
| CTTATGATAG | 0.97 ± 0.013 |
| CTTATGTATT | 0.993 ± 0.019 |
| CTTATTCGTC | 1.04 ± 0.025 |
| CTTCAGGTTG | 1.016 ± 0.0024 |
| CTTCCTGCCA | 2.69 ± 0.36 |
| CTTCCTTTTT | 3.13 ± 3 |
| CTTCGCACGG | 3.54 ± 0.37 |
| CTTCGTACAG | 1.02 ± 0.014 |
| CTTCGTCTCG | 1.08 ± 0.072 |
| CTTCGTGGCC | 1.04 ± 0.036 |
| CTTCTAGGCA | 1.04 ± 0.032 |
| CTTCTATAAC | 1.07 ± 0.02 |
| CTTCTGGGGC | 1.04 ± 0.055 |
| CTTGAAAAGC | 1.05 ± 0.021 |
| CTTGAAAAGG | 0.9995 ± 0.0038 |
| CTTGAAAGAT | 0.99786 ± 0.00087 |
| CTTGAAATTC | 1.04 ± 0.017 |

| Sequence | switch fluorescence ratio |
| --- | --- |
| CTTGACTTTT | 1.015 ± 0.0014 |
| CTTGGGGGGA | 0.997 ± 0.029 |
| CTTGGGGTGC | 1.07 ± 0.094 |
| CTTGGGTTTG | 1.06 ± 0.14 |
| CTTGGGTTTT | 0.9548 ± 0.0091 |
| CTTGGTCGGC | 1.068 ± 0.0026 |
| CTTGTAAAAT | 0.993 ± 0.014 |
| CTTGTAAGAA | 1.02 ± 0.05 |
| CTTGTAGGTG | 1.36 ± 0.48 |
| CTTGTATACG | 0.9888 ± 0.001 |
| CTTGTATAGT | 0.9947 ± 0.0062 |
| CTTGTATGAG | 0.989 ± 0.012 |
| CTTGTGAAA | 1.009 ± 0.0082 |
| CTTGTGCAAG | 1.03 ± 0.024 |
| CTTGTGGCTT | 1.034 ± 0.0061 |
| CTTGTGGTGT | 0.973 ± 0.019 |
| CTTGTTGGGT | 0.999 ± 0.033 |
| CTTGTTGTAT | 1.01 ± 0.02 |
| CTTGTTTGGC | 1.02 ± 0.045 |
| CTTGTTTGGG | 1 ± 0.039 |
| CTTTAAAGTT | 1.09 ± 0.18 |
| CTTTAAGGGC | 0.986 ± 0.022 |
| CTTTAATCAA | 0.991 ± 0.013 |
| CTTTAATGTC | 1 ± 0.025 |
| CTTTAATTCG | 1 ± 0.028 |

| Sequence | switch fluorescence ratio |
| --- | --- |
| CTTTAGCCGG | 1.02 ± 0.049 |
| CTTTATGGTT | 0.99 ± 0.065 |
| CTTTATTCGT | 0.9896 ± 0.0096 |
| CTTTCAATGG | 1.07 ± 0.015 |
| CTTTGGCTTC | 0.9876 ± 0.0039 |
| CTTTGGGGGG | 0.982 ± 0.025 |
| CTTTGGGGGT | 0.979 ± 0.019 |
| CTTTGGGTTG | 1 ± 0.02 |
| CTTTGTAGCC | 1.05 ± 0.012 |
| CTTTGTCGCT | 1.01 ± 0.029 |
| CTTTTAAGGC | 1.1 ± 0.15 |
| CTTTTAAGGT | 0.984 ± 0.03 |
| CTTTTACTAA | 1.024 ± 0.0071 |
| CTTTTAGTGT | 0.963 ± 0.032 |
| CTTTTATTGG | 1 ± 0.029 |
| CTTTTGAAGT | 0.983 ± 0.01 |
| CTTTTGAGAC | 1.02 ± 0.053 |
| CTTTTGAGGG | 0.974 ± 0.018 |
| CTTTTGTAAT | 1.01 ± 0.014 |
| CTTTTTTGAT | 0.9831 ± 0.0061 |
| CTTTTTTGCC | 1.02 ± 0.019 |
| GAAAAAAAGG | 0.982 ± 0.051 |
| GAAAAAACGT | 1.05 ± 0.038 |
| GAAAAAGCAA | 1.14 ± 0.054 |
| GAAAAAGCAT | 1 ± 0.016 |

| Sequence | switch fluorescence ratio |
| --- | --- |
| GAAAAAGTGA | 0.975 ± 0.054 |
| GAAAAAGTGG | 0.998 ± 0.014 |
| GAAAAATGCC | 1.05 ± 0.05 |
| GAAAAATTAA | 0.993 ± 0.026 |
| GAAAAGCAGG | 0.989 ± 0.025 |
| GAAAAGGGCG | 1.01 ± 0.022 |
| GAAAAGGGGT | 1 ± 0.028 |
| GAAAAGTATC | 1.001 ± 0.0022 |
| GAAAATAGGT | 0.99 ± 0.024 |
| GAAAATTGAG | 1 ± 0.015 |
| GAAAATTGCC | 0.978 ± 0.075 |
| GAAACAGATA | 1 ± 0.012 |
| GAAACATGCT | 1.01 ± 0.052 |
| GAAACGGGGG | 1.013 ± 0.009 |
| GAAACTGGAA | 0.997 ± 0.016 |
| GAAACTTGCA | 1.075 ± 0.0066 |
| GAAAGCATAT | 1.01 ± 0.034 |
| GAAAGCCCGT | 0.989 ± 0.021 |
| GAAAGCTGAG | 1.18 ± 0.033 |
| GAAAGGGATG | 1.03 ± 0.029 |
| GAAAGTAACC | 1.05 ± 0.021 |
| GAAAGTATGT | 1 ± 0.024 |
| GAAAGTCGGA | 0.998 ± 0.066 |
| GAAAGTGCTA | 1.07 ± 0.03 |
| GAAAGTGTGT | 1.004 ± 0.0092 |

| Sequence | switch fluorescence ratio |
| --- | --- |
| GAAAGTTAAA | 1.038 ± 0.0091 |
| GAAATAATAA | 1.01 ± 0.011 |
| GAAATAGGGC | 0.997 ± 0.0058 |
| GAAATATTTT | 0.996 ± 0.05 |
| GAAATCATGT | 0.977 ± 0.023 |
| GAAATCGTTT | 0.9949 ± 0.0082 |
| GAAATGATTC | 1 ± 0.024 |
| GAAATGGAGG | 0.995 ± 0.027 |
| GAAATGGGTG | 1.04 ± 0.078 |
| GAAATTCCGA | 1.85 ± 1.1 |
| GAAATTTAAG | 1.02 ± 0.035 |
| GAAATTTAGG | 0.9938 ± 0.0046 |
| GAAATTTGAA | 1.01 ± 0.012 |
| GAAATTTGGA | 0.991 ± 0.034 |
| GAAATTTGGT | 0.99 ± 0.042 |
| GAACACTTAT | 1.04 ± 0.044 |
| GAACCATGTT | 0.977 ± 0.014 |
| GAACCGGATG | 0.9997 ± 0.0074 |
| GAACCTAGAG | 0.98 ± 0.056 |
| GAACGAAGTT | 1 ± 0.018 |
| GAACGGAATT | 1.19 ± 0.023 |
| GAACGGCTG | 1.07 ± 0.049 |
| GAACGTCCAG | 0.99 ± 0.027 |
| GAACGTCTAC | 1.28 ± 0.056 |
| GAACTAAGGA | 0.9895 ± 0.0027 |
